The text below walks through data of paper PMC11969024 (2025).

B1: peptide HD2 (from tick evasin EVA4) / CCL19 (biotinylated, synthetic) (parent complex)
chain 1: EEDDYTAYAPLTCYFT
chain 2: GTNDAEDCCLSVTQKPIPGYIVRNFHYLLIKDGCRVPAVVFTTLRGRQLCAPPDQPWVERIIQRLQRTSAKMKRRSS

The test covers variants of B1.
With chain 1 EEDDYTAYAPLTCRFT, the enrichment was -7.07 log2 (difference from the parental peptide).

In the case of chain 1 AEDDYTAYAPLTCYFT, the enrichment was -5.3 log2 (difference from the parental peptide).

On to chain 1 MEDDYTAYAPLTCYFT, for which the enrichment is -5.78 log2 (difference from the parental peptide).

As for chain 1 LEDDYTAYAPLTCYFT, the enrichment was -2.92 log2 (difference from the parental peptide).

Regarding chain 1 YEDDYTAYAPLTCYFT, the enrichment is 1.7 log2 (difference from the parental peptide).

For the variant chain 1 PEDDYTAYAPLTCYFT, the enrichment was -6.51 log2 (difference from the parental peptide).

Turning to chain 1 SEDDYTAYAPLTCYFT, the enrichment was -6.42 log2 (difference from the parental peptide).

As for chain 1 KEDDYTAYAPLTCYFT, the enrichment is -4.04 log2 (difference from the parental peptide).

chain 1 EEDDYTAYAPLTCYTT: the enrichment was -3.97 log2 (difference from the parental peptide).

Take chain 1 EEDDYTAYAPLTCYET: the enrichment was -4.2 log2 (difference from the parental peptide).

As to chain 1 EEDDYTAYAPLTCYHT, the enrichment is -3.96 log2 (difference from the parental peptide).

Consider chain 1 EEDMYTAYAPLTCYFT, for which the enrichment was -3.6 log2 (difference from the parental peptide).

As to chain 1 EEDLYTAYAPLTCYFT, the enrichment is -2.61 log2 (difference from the parental peptide).

As for chain 1 EEDWYTAYAPLTCYFT, the enrichment is 0.498 log2 (difference from the parental peptide).

For the variant chain 1 EEDSYTAYAPLTCYFT, the enrichment was -6.25 log2 (difference from the parental peptide).

With chain 1 EEDIYTAYAPLTCYFT, the enrichment was -2.59 log2 (difference from the parental peptide).

Take chain 1 EEDDYTAYYPLTCYFT: the enrichment was 0.673 log2 (difference from the parental peptide).

Take chain 1 EEDDYTAYRPLTCYFT: the enrichment was -5.91 log2 (difference from the parental peptide).

In the case of chain 1 EEDDYTAYIPLTCYFT, the enrichment was -3.88 log2 (difference from the parental peptide).

For chain 1 EEDDYTAYCPLTCYFT, the enrichment is -8.06 log2 (difference from the parental peptide).

With chain 1 EEDDYTAYAGLTCYFT, the enrichment was -5.73 log2 (difference from the parental peptide).

Regarding chain 1 ENDDYTAYAPLTCYFT, the enrichment was -1.08 log2 (difference from the parental peptide).

chain 1 EDDDYTAYAPLTCYFT: the enrichment is 2.11 log2 (difference from the parental peptide).

Regarding chain 1 EVDDYTAYAPLTCYFT, the enrichment was 0.565 log2 (difference from the parental peptide).

In the case of chain 1 ETDDYTAYAPLTCYFT, the enrichment is -1.16 log2 (difference from the parental peptide).

For the variant chain 1 ESDDYTAYAPLTCYFT, the enrichment is -0.165 log2 (difference from the parental peptide).

Turning to chain 1 EMDDYTAYAPLTCYFT, the enrichment was 0.392 log2 (difference from the parental peptide).

As to chain 1 ELDDYTAYAPLTCYFT, the enrichment was 0.769 log2 (difference from the parental peptide).

For chain 1 ERDDYTAYAPLTCYFT, the enrichment was -2.64 log2 (difference from the parental peptide).

In the case of chain 1 EEDDYTAYAPLTCYFF, the enrichment is -0.403 log2 (difference from the parental peptide).

In the case of chain 1 EEDDYTAYAPLTCYFQ, the enrichment was -5.8 log2 (difference from the parental peptide).

As for chain 1 EEDDYTAYAPLTCYFS, the enrichment is -1.7 log2 (difference from the parental peptide).

For the variant chain 1 EEDDYTAYAPLTCYFD, the enrichment is -1.5 log2 (difference from the parental peptide).

Regarding chain 1 EEDDYTAYAPLTCYFC, the enrichment is -6.65 log2 (difference from the parental peptide).

As for chain 1 EEDDYTAYAPLTCYFA, the enrichment was -1.59 log2 (difference from the parental peptide).

Regarding chain 1 EEDDYTAYAPLTCYFR, the enrichment is -6.57 log2 (difference from the parental peptide).

chain 1 EELDYTAYAPLTCYFT: the enrichment is -2.95 log2 (difference from the parental peptide).

chain 1 EEFDYTAYAPLTCYFT: the enrichment was -3.58 log2 (difference from the parental peptide).

Turning to chain 1 EEWDYTAYAPLTCYFT, the enrichment is 0.0843 log2 (difference from the parental peptide).

As to chain 1 EEGDYTAYAPLTCYFT, the enrichment was -6.43 log2 (difference from the parental peptide).

As to chain 1 EEYDYTAYAPLTCYFT, the enrichment is -0.734 log2 (difference from the parental peptide).

As for chain 1 EEDDYTAWAPLTCYFT, the enrichment is 0.479 log2 (difference from the parental peptide).

As for chain 1 EEDDYWAYAPLTCYFT, the enrichment was 7.55 log2 (difference from the parental peptide).

On to chain 1 EEDDYRAYAPLTCYFT, for which the enrichment is -3.39 log2 (difference from the parental peptide).

As to chain 1 EEDDYSAYAPLTCYFT, the enrichment is 0.379 log2 (difference from the parental peptide).

In the case of chain 1 EEDDYCAYAPLTCYFT, the enrichment was -7.51 log2 (difference from the parental peptide).

chain 1 EEDDYYAYAPLTCYFT: the enrichment was 4.88 log2 (difference from the parental peptide).

As to chain 1 EEDDYTAYAPLMCYFT, the enrichment was 1.53 log2 (difference from the parental peptide).

For chain 1 EEDDYTAYAPLHCYFT, the enrichment was 0.389 log2 (difference from the parental peptide).

chain 1 EEDDYTAYAPITCYFT: the enrichment was 1.76 log2 (difference from the parental peptide).

As to chain 1 EEDDYTAYAPWTCYFT, the enrichment is -0.0314 log2 (difference from the parental peptide).

Take chain 1 EEDDYTAYAPKTCYFT: the enrichment is -3.64 log2 (difference from the parental peptide).

With chain 1 EEDDYTDYAPLTCYFT, the enrichment is 2 log2 (difference from the parental peptide).

chain 1 EEDDYTGYAPLTCYFT: the enrichment is -5.86 log2 (difference from the parental peptide).

As for chain 1 EEDDYTMYAPLTCYFT, the enrichment is 2.5 log2 (difference from the parental peptide).

With chain 1 EEDDYTEYAPLTCYFT, the enrichment is -0.397 log2 (difference from the parental peptide).
